# US20190201542A1 (AbbVie / Abbott, published 2019)
# Positions count from the first letter of the chain named.
# B1: SC16.3 (antibody, V domains shown)
# VH: QVTLKESGPGILQPSQTLSLTCSFSGFSLSTSGMGVGWIRQPSGKGLEWLAHIWWDDVKRYNPALKSRLTISKDTSSSQVFLKIASVDTADTATYYCARIADYGGDYYAMDYWGQGTSVTVSS
# VL: QIVLTQSPAIMSVSLGERVTMTCTASSSVSSSYLHWYQQKPGSSPKLWIYSTSNLASGVPARFSGSGSGTSYFFTISSMEAEDAATYYCHQYHRSPFTFGAGTKLKIR
# notes: murine mAb
# B2: SC16.18 (antibody, V domains shown)
# VH: EVKLEESGGGLVQPGESMKLSCAASGFTFSDAWMDWVRQSPEKGLEWVAEIRNKANNHATYYAESVKGKFTISRDDSKSRVYLQMNNLRAADTGIYYCTAYSNFAYWGQGTLVTVST
# VL: DIQMTQTTSSLSASLGDRVTISCRASQNIINYLNWYQQKPDGTVKLLIYYTSRLHSGVPSRFSGSGSGTDYSLTISNLEPEDIATYYCQQYSERPYTFGGGTKLEIK
# notes: murine mAb
# B3: SC16.41 (antibody, V domains shown)
# VH: B2 VH with P14F, E16G, A63P, K69R, A91E, A100G, N103S, T117A
# VL: B2 VL with N28D, I29V, G68R
# notes: murine mAb
# B4: SC16.19 (antibody, V domains shown)
# VH: EVQLQQSGAELVRPGASVKLSCTASGFNIKDSLLHWVKQRPEKGLEWIGWIDPEDGETKYAPNFQDKATITTDSSSNTAYLQLISLTSVDTAIYYCAYGNYVRHFDYWGQGTTLTVSS
# VL: DIQMTQSPSSLSASLGGKVTFTCKASQDIHKYVAWYQHKPGKGPRLLIHYTSTLQPGISSRFSGSGSGRDYSFSISNLEPEDIATYYCLQYNNLYTFGGGTKLEIK
# notes: murine mAb
# B5: SC16.20 (antibody, V domains shown)
# VH: QVQLQQSGTELVRPGTSVRVSCKASGYAFGNHLIEWVKQRPGQGLEWIGVINPGTGGTHYNEKFKDKARLTADKSSNTAYMHLNSLTSDDSAVYFCARSPYDYHEGAMDYWGQGTSVTVSS
# VL: EIQMTQSPSSMSASLGDRITITCQATQDIVKNLNWYQQKPGKPPSFLIYYATELAEGVPSRFSGSGSGSDYSLTIRNLESEDFADHYCLQFYEFPFTFGAGTKLELK
# notes: murine mAb
# B6: SC16.21 (antibody, V domains shown)
# VH: QVQLQQSGPELVKPGASVKISCKASGYAFSSSWMNWVKQRPGKGLEWIGRIYPGDGDTNYNGKFKGKATLTADKSSSTAYMQLSSLTSEDSAVYFCAMGIYNYDGSRYYSMDYWGQGTSVTVSS
# VL: DIVMTQSPSSLAMSVGQKVTMSCKSSQSLLNSSNQKNYLAWYQQEPGQSPKLLVSFASTRESGVPDRFTGSGSGTDFTLTISGVQAEDLAVYYCQQHYSIPLTFGAGTKLELK
# notes: murine mAb
# B7: SC16.22 (antibody, V domains shown)
# VH: QVQLQQPGAELVKPGASVKLSCKASGYTFTTYWMHWVKQRPGQGLEWIGEIDPSDSYTYYNQKFKGKATLTVDKSSSTAYMQLSSLTSEDSAVYYCARGDYGNPYAMDYWGQGSSVTVSS
# VL: DIQMTQTTSSLSASLGDRVTISCRASQDIKNYLNWYQQKPDGTVKPLIYYTSRVHSGVPSRFSGSGSGTDYSLTISNLEQEDIATYFCQQGYTLPFTFGSGTKLEIK
# notes: murine mAb
# B8: SC16.5 (antibody, V domains shown)
# VH: QVTLKESGPGILQPSQTLSLTCSFSGFSLSTSGMGVGWIRQPSGEGLEWLADIWWDDNKYYNPSLKSRLTISKDTSSNQVFLKITSVDTADTATYYCARRVNYVYDPYYAMDYWGQGTSVTVSS
# VL: QIVLTQSPAIMSASPGEKVTMTCSASSSVSYMHWYQQKSGTSPKRWIYDTSKLASGVPARFSGSGSGTSYSLTISSMEAEDAATYYCQQWTRNPLTFGAGTKLELK
# notes: murine mAb
# B9: SC16.25 (antibody, V domains shown)
# VH: B8 VH with A51T, K83N, V104Y
# VL: B8 VL with T50S, T91S, R92S
# notes: murine mAb
# B10: SC16.29 (antibody, V domains shown)
# VH: QVQLQQSGAELARPGASVKLSCKASGYTFTDQYINWVKQRTGQGLEWIGEIYPGRGNTYYNEKFKGKATLTADKSSSTAYMQLSSLTSEDSAVYFCAREDGGYDDAWFAYWGQGTLVTVSA
# VL: QIVLTQSPAIMSASPGEKVTITCSASSSVSYMHWFQQKPGTSPKLWIYTTSNLASGVPARFSGSGSGTSYSLTVSRMEAEDAATYYCQQRSLYPYTFGGGTKVEIK
# notes: murine mAb
# B11: SC16.30 (antibody, V domains shown)
# VH: QVTLKESGPGILQPSQTLSLTCSFSGFSLSTSGMGVGWIRQPSGKGLEWLAHIWWDDVKRYKPALKSRLTVSKDTSSNQVFLKIATVDAADTGTYYCARIVDGHPPFAYWGQGTLVTVSA
# VL: B1 VL with A9T, V13A, S30T, F73S, F74L, Y92F, A101S, K106E, R108K
# notes: murine mAb
# B12: SC16.4 (antibody, V domains shown)
# VH: QIQLVQSGPELKKPGETVKISCKASGYTFTDYSMHWVKQAPGKGLKWMGWINTETGEPGYADDFKGRFAFSLETSASTAYLQINNLKNEDTATYFCARYDGYAMDYWGQGTSVTVSS
# VL: B7 VL with K30S, P46L, V54L, Q80L, Y92D, T93M, F96W, S100G
# notes: murine mAb
# B13: SC16.35 (antibody, V domains shown)
# VH: DVQLQESGPGLVKPSQSLSLTCTVTGYSITSDYAWNWIRQFPGNKLEWMGYISYSGSTSYNPSLKSRISITRDTSKNQFFLQLNSVTTEDTATYYCARFYYGSSYAMDYWGQGTSVTVSS
# VL: B7 VL with K30S, P46L, V54L, Y92N, F96Y, S100G
# notes: murine mAb
# B14: SC16.38 (antibody, V domains shown)
# VH: EVQLQQSGAELVKPGASVKLSCTVSGFNIKDTYIHWVKQRPEQGLEWIGRIDPANGNTKYDPKFQGKATITADTSSNTAYLQLSSLTSEDTAVYYCARPTGYFEYWGQGTTLTVSS
# VL: QIVLTQSPAIMSASPGEKVTMTCSASSSINYMHWYQQKPGTSPKRWIYDTSKLASGVPARFSGSGSGTSYSLTISSMEAEDAATYYCHQRSTWTFGGGTKLEIK
# notes: murine mAb
# B15: SC16.42 (antibody, V domains shown)
# VH: QIQLVQSGPELKKPGETVKISCKASGYTFTTAGMQWVQKMPGKGFKWIGWINTHSGEPKYADDFKGRFAFSLETSASTAYLQISNLKDEDTATFFCAPLWSDSSFAYWGQGTLVTVSA
# VL: DVLMTQSPLSLSVSLGDQASISCRSSQNIVHSDRYTYLEWYLQKPGQSPKLLIYGVSNRFSGVPDRFSGSGSGTDFTLKISRVEAEDMGVYYCFQGTHVPYTFGGGTKLEIK
# notes: murine mAb
# B16: SC16.45 (antibody, V domains shown)
# VH: QVQLQQSGADLVRPGTSVKVSCKASGYSFTNYLIEWVKQRPGQGLEWIGVINPGSGGTHYNEKFKDKAVLTADKSSTTAHMQLSSLTSDDSAVYFCARSPYDYNDGAMDYWGQGTSVTVSS
# VL: B5 VL with S60A, R76S, H86Y, Y87H
# notes: murine mAb
# B17: SC16.47 (antibody, V domains shown)
# VH: EVQLQQSGPELVKPGASVKISCKASGYSFSRFYMHWVKQSPENSLEWIGEINPSTGGTSYNQKFKGKATLTVDKSSSTAYMQLKSLTSEESAVYYCTRGYGSNCYFDVWGAGTTVTVST
# VL: DVVLTQSPLSLPVNIGDQASISCKSTKSLLNSDGFTYLDWYLQRPGQSPQFLIYLVSNRFSGVPDRFSGSGSGTDFTLKISRVEAEDLGVYYCFQSNYLPLTFGAGTKLELR
# notes: murine mAb
# B18: SC16.49 (antibody, V domains shown)
# VH: QVQLQQSGPELVKPGTLVKISCKASGYTFTSYDINWVKQRPGQGLEWIGWIYPGDGNTKYSEKFKGKATLTADKSSSTAYMQLTSLTSENSAVYFCARDYDYPFAYWGQGTLVTVSA
# VL: DIKMTQSPSSMYASLGERVTITCKASQDINSYLSWFQQKPGKSPKTLIYRANRLVDGVPSRFSGSGSGQDYSLTITSLEYEDMGIYYCLQYDEFPLTFGAGTKLELK
# notes: murine mAb
# B19: SC16.52 (antibody, V domains shown)
# VH: QVQLKESGPGLVAPSQSLSITCAVSGFSLTSFAIHWFRKPPGKGLEWLGVIWTGGTTNYNSALMSRLSISKDNSKSQVFLKMNSLQTDDTAMYYCARDDYDNNYAMDYWGQGTSVTVSS
# VL: DIQMIQSPSSMFASLGDRVSLSCRASQGIRGTLDWYQQKPNGTIKLLIYSTSNLNSGVPSRFSGSGSGSDYSLTISSLESEDFADYYCLQRNAYPLTFGAGTKLELK
# notes: murine mAb
# B20: SC16.55 (antibody, V domains shown)
# VH: EVQLVESGGGLVQPKGSLKLSCAVSAFTFTTYAMNWVRQAPGKGLEWVARIRNKSNNYATYYADSVKDRFTISRDDSQSMLYLQMNNLKIEDTAMYYCVFYYDYVYWGQGTLVTVSA
# VL: B18 VL with S34N, T76S, L96Y, A100G, L106I
# notes: murine mAb
# B21: SC16.57 (antibody, V domains shown)
# VH: EVKLVESGGDLVKPGGSLKLSCAASGFAFSSYDMSWVRQTPEKRLEWVATISSGGSYTYYPDSVKGRFTISRDNVRDTLYLQMSSLRSEDTALYYCARQAIGTYFDYWGQGTTLTVSS
# VL: DIVMTQSHKFMSISVGDRVSITCKASQDVSIFVAWYQQKPGQSPKLLIYSASYRYTGVPDRFTGSGSGTDFIFTISSVQAEDLAVYYCQQHYGTPFTFGSGTKLKIR
# notes: murine mAb
# Target: T1, human DLL3 (human, UniProt Q9NYJ7 27-492, limits assumed)
# T1 construct: also called hDLL3; DLL3 protein
# T1 sequence: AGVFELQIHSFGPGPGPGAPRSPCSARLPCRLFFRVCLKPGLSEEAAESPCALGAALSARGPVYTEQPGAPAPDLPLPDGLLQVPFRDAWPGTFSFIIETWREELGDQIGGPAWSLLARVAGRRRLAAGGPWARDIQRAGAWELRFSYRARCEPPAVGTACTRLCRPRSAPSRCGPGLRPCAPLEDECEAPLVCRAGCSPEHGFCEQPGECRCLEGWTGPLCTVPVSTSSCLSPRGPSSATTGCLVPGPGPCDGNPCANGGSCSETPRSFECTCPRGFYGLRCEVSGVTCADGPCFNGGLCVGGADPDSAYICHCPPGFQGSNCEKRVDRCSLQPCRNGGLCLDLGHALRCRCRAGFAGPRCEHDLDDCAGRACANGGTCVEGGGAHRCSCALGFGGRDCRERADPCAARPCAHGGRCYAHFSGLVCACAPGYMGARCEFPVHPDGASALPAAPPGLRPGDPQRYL
# Assay: screen on immobilized hDLL3 or h293-hDLL3 cells
# In short: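 Solid-phase ELISA on DLL3-His (0.5 μg/ml coating), developed with HRP anti-mouse IgG and TMB and read at OD 450, was one screen for supernatants of single-cell hybridomas from human DLL3-immunized mice taken after 10 days in culture. Flow-cytometry binding counted as positive only above the control.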
row,Binder,binding result
1,B1,binds
2,B2,binds
3,B3,binds
4,B4,binds
5,B5,binds
6,B6,binds
7,B7,binds
8,B8,binds
9,B9,binds
10,B10,binds
11,B11,binds
12,B12,binds
13,B13,binds
14,B14,binds
15,B15,binds
16,B16,binds
17,B17,binds
18,B18,binds
19,B19,binds
20,B20,binds
21,B21,binds
